Measurements as given in paper PMC3656001.

Legend:
[1] = target: bovine lactoferrin (bovine); test: AUC; multi-signal sedimentation velocity (MSSV) with mass conservation and low-s constraints; mixture of 6.9 µM Tp34 and 2.3 µM bLF in solution, diluted from Buffer A into 20 mM Tris pH 7.5, 20 mM NaCl; 20°C, 50,000 rpm; interference + absorbance at 280 nm; Kd estimated from the reaction boundary molar ratio by effective particle theory, assuming sAB = 6.2 S
[2] = target: bovine lactoferrin (bovine); test: AUC; follow-up multi-signal sedimentation velocity (MSSV) without constraints, conducted almost identically to a1 but with absorbance at 280 nm and 250 nm and no interference signal; Tp34/bLF mixture in solution

B1: Tp34 from Treponema pallidum (natural protein)
chain: CGGGGEHQHGEEMMAAVPAPDAEGAAGFDEFPIGEDRDVGPLHVGGVYFQPVEMHPAPGAQPSKEEADCHIEADIHANEAGKDLGYGVGDFVPYLRVVAFLQKHGSEKVQKVMFAPMNAGDGPHYGANVKFEEGLGTYKVRFEIAAPSHDEYSLHIDEQTGVSGRFWSEPLVAEWDDFEWKGPQW
B1 showed a Kd [1] of 3.1 µM, a stoichiometry N (mol Tp34 per mol bLF) [1] of 0.7 and a stoichiometry N (mol Tp34 per mol bLF) [2] of 0.7.
